The values below come from PMC9121088, “The novel P330L pathogenic variant of aromatic amino acid decarboxylase maps on the catalytic flexible loop underlying its crucial role” (Cellular and Molecular Life Sciences: CMLS, 2022).

In data set [1] the target is T1, aromatic amino acid decarboxylase (AADC), P330L variant (Homo sapiens, UniProt P20711, P330L).
T1 construct: gene DDC
T1 sequence (P20711 1-480 P330L): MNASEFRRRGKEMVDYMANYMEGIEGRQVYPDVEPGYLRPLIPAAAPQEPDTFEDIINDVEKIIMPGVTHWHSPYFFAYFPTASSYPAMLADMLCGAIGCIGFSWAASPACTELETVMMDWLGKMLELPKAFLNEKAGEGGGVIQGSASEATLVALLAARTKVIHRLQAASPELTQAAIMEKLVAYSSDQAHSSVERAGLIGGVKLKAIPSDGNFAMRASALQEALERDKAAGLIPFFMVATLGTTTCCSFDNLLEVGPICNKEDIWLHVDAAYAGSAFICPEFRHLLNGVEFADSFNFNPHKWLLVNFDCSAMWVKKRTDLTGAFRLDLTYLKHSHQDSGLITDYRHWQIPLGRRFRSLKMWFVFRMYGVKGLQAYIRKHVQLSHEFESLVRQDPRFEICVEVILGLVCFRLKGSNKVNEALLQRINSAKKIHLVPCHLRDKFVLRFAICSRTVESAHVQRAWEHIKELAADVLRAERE
In words: intrinsic fluorescence quenching titration of apoenzyme (KD(PLP)). Type of data set: binding.

For data set [2], the target named is T2, aromatic amino acid decarboxylase (AADC), wild-type (Homo sapiens, UniProt P20711).
T2 construct: gene DDC
T2 sequence (P20711 1-480): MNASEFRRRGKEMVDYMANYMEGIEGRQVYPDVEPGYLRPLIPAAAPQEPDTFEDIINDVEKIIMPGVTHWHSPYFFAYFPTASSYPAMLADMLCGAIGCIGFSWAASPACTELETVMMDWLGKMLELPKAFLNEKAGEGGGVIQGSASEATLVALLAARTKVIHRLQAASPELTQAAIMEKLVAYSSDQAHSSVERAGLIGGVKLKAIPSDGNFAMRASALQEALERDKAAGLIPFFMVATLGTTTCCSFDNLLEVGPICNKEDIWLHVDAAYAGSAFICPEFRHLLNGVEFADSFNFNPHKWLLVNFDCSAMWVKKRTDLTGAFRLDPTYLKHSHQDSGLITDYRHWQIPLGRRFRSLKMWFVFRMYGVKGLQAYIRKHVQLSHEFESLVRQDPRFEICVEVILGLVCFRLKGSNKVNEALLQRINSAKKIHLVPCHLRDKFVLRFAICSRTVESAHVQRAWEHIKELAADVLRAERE
The data set is described as above. Type of data set: binding.

Data set [3] concerns the target T1, aromatic amino acid decarboxylase (AADC), P330L variant. In words: CD thermal denaturation at […] nm ([…] to […] °C) of cDopa-bound form. Type of data set: binding.
In data set [4] the target is T2, aromatic amino acid decarboxylase (AADC), wild-type. In words: CD thermal denaturation at […] nm ([…] to […] °C); DLS of cDopa-bound form. Type of data set: binding.
Substrate in data set [5]: N[C@@H](Cc1ccc(O)c(O)c1)C(=O)O
Put plainly: purified protein. As to conditions: PLP active site; external aldimine with PLP; pH 7.4; 25.0 °C.

Substrate in data set [6]: N[C@@H](Cc1c[nH]c2ccc(O)cc12)C(=O)O
In words: purified protein. The settings on record: pH 7.4; 25.0 °C. Type of data set: biochemical, Homo sapiens.

For the molecule `Cc1ncc(COP(=O)(O)O)c(C=O)c1O` [PLP, pyridoxal 5'-phosphate], the equilibrium dissociation constant (Kd) in data set [1] stood at 123 ± 19 nM; in data set [2] it was 101 ± 10 nM.

Take `C[C@@](Cc1ccc(O)c(O)c1)(NN)C(=O)O` [cDopa, carbiDopa]: in data set [3], the “P330L (°C)” value is 69.9 ± 0.3 °C. In data set [4], the “WT (°C)” value turned out to be 68.9 ± 0.4 °C.

B1: aromatic amino acid decarboxylase (AADC), wild-type (Homo sapiens) (protein)
chain: MNASEFRRRGKEMVDYMANYMEGIEGRQVYPDVEPGYLRPLIPAAAPQEPDTFEDIINDVEKIIMPGVTHWHSPYFFAYFPTASSYPAMLADMLCGAIGCIGFSWAASPACTELETVMMDWLGKMLELPKAFLNEKAGEGGGVIQGSASEATLVALLAARTKVIHRLQAASPELTQAAIMEKLVAYSSDQAHSSVERAGLIGGVKLKAIPSDGNFAMRASALQEALERDKAAGLIPFFMVATLGTTTCCSFDNLLEVGPICNKEDIWLHVDAAYAGSAFICPEFRHLLNGVEFADSFNFNPHKWLLVNFDCSAMWVKKRTDLTGAFRLDPTYLKHSHQDSGLITDYRHWQIPLGRRFRSLKMWFVFRMYGVKGLQAYIRKHVQLSHEFESLVRQDPRFEICVEVILGLVCFRLKGSNKVNEALLQRINSAKKIHLVPCHLRDKFVLRFAICSRTVESAHVQRAWEHIKELAADVLRAERE
On to B1, for which, in the data set “purified protein [5]”, the Michaelis-Menten constant (Km) is 16 ± 1 µM, the kcat is 5.5 s⁻¹ and the kcat/Km came out at 344000 M⁻¹ s⁻¹. Moreover, in the data set “purified protein [6]”, the Michaelis constant (Km) is 9 ± 1 µM, the kcat turned out to be 0.56 ± 0.02 s⁻¹ and the specificity constant (kcat/Km) amounted to 62000 ± 7000 M⁻¹ s⁻¹.

B2: aromatic amino acid decarboxylase (AADC), P330L variant (Homo sapiens; P330L) (protein)
chain: MNASEFRRRGKEMVDYMANYMEGIEGRQVYPDVEPGYLRPLIPAAAPQEPDTFEDIINDVEKIIMPGVTHWHSPYFFAYFPTASSYPAMLADMLCGAIGCIGFSWAASPACTELETVMMDWLGKMLELPKAFLNEKAGEGGGVIQGSASEATLVALLAARTKVIHRLQAASPELTQAAIMEKLVAYSSDQAHSSVERAGLIGGVKLKAIPSDGNFAMRASALQEALERDKAAGLIPFFMVATLGTTTCCSFDNLLEVGPICNKEDIWLHVDAAYAGSAFICPEFRHLLNGVEFADSFNFNPHKWLLVNFDCSAMWVKKRTDLTGAFRLDLTYLKHSHQDSGLITDYRHWQIPLGRRFRSLKMWFVFRMYGVKGLQAYIRKHVQLSHEFESLVRQDPRFEICVEVILGLVCFRLKGSNKVNEALLQRINSAKKIHLVPCHLRDKFVLRFAICSRTVESAHVQRAWEHIKELAADVLRAERE
With B2, in “purified protein [5]”, the Km was found to be 57 ± 2 µM, the kcat is 0.0291 s⁻¹ and the kcat/Km is 510 M⁻¹ s⁻¹. In “purified protein [6]”, the Michaelis constant (Km) was 29 ± 3 µM, the kcat is 0.0092 ± 0.0003 s⁻¹ and the specificity constant (kcat/Km) was 320 ± 30 M⁻¹ s⁻¹.

The Kd is the equilibrium constant for the complex coming apart. For orientation: Km means the substrate concentration at which the rate is half of its maximum. As a reminder, the kcat is the number of substrate molecules converted per active site and unit of time at saturation. The kcat/Km is the turnover number divided by the Michaelis constant.
